Test results as given in patent US20030092616A1, “STAT6 activation gene” (priority 2001, published 2003).

B1: 219 (nucleic acid, listed as Homo sapiens)
chain: GTATACCACAGACCAAAGCACCTTTGACATTTTGCAGGATTTGGAGTTTTCTTCTGGGTCCCCAGGTAAAGAGACGAATGAGAGTCCTTGGAGATCAGACCTGTTGATAGATGAAAACTGTTTGCTTTCTCCTCTGGCGGGAGAAGACGATTCATTCCTTTTGGAAGGAAACTCGAATGAGGACTGCAAGCCTCTCATTTTACCGGACACTAAACCCAAAATTAAGGATAATGGAGATCTGGTTTTGTCAAGCCCCAGTAATGTAACACTGCCCCAAGTGAAAACAGAAAAAGAAGATTTCATCGAACTCTGCACCCCTGGGGTAATTAAGCAAGAGAAACTGGGCACAGTTTACTGTCAGGCAAGCTTTCCTGGAGCAAATATAATTGGTAATAAAATGTCTGCCATTTCTGTTCATGGTGTGAGTACCTCTGGAGGACAGATGTACCACTATGACATGAATACAGCATCCCTTTCTCAACAGCAGGATCAGAAGCCTATTTTTAATGTCATTCCACCAATTCCCGTTGGTTCCGAAAATTGGAATAGGTGCCAAGGATCTGGAGATGACAACTTGACTTCTCTGGGGACTCTGAACTTCCCTGGTCGAACAGTTTTTTCTAATGGCTATTCAAGCCCCAGCATGAGACCAGATGTAAGCTCTCCTCCATCCAGCTCCTCAACAGCAACAACAGGACCACCTCCCAAACTCTGCCTGGTGTGCTCTGATGAAGCTTCAGGATGTCATTATGGAGTCTTAACTTGTGGAAGCTGTAAAGTTTTCTTCAAAAGAGCAGTGGAAGGACAGCACAATTACCTATGTGCTGGAAGGAATGATTGCATCATCGATAAAATTCGAAGAAAAAACTGCCCAGCATGCCGCTATCGAAAATGTCTTCAGGCTGGAATGAACCTGGAAGCTCGAAAAAC
modifications: CDS (398)..(928)
B2: 217 (nucleic acid, listed as Homo sapiens)
chain: AAGCAATGCGCAGCAGCCAGATCTGTCCAAAGCAGTTTCACTCTCAATGGGACTGTATATGGGAGAGACAGAAACAAAAGTGATGGGAAATGACCTGGGATTCCCACAGCAGGGCCAAATCAGCCTTTCCTCGGGGGAAACAGACTTAAAGCTTTTGGAAGAAAGCATTGCAAACCTCAATAGGTCGACCAGTGTTCCAGAGAACCCCAAGAGTTCAGCATCCACTGCTGTGTCTGCTGCCCCCACAGAGAAGGAGTTTCCAAAAACTCACTCTGATGTATCTTCAGAACAGCAACATTTGAAGGGCCAGACTGGCACCAACGGTGGCAATGTGAAATTGTATACCACAGACCAAAGCACCTTTGACATTTTGCAGGATTTGGAGTTTTCTTCTGGGTCCCCAGGTAAAGAGACGAATGAGAGTCCTTGGAGATCAGACCTGTTGATAGATGAAAACTGTTTGCTTTCTCCTCTGGCGGGAGAAGACGATTCATTCCTTTTGGAAGGAAACTCGAATGAGGACTGCAAGCCTCTCATTTTACCGGACACTAAACCCAAAATTAAGGATAATGGAGATCTGGTTTTGTCAAGCCCCAGTAATGTAACACTGCCCCAAGTGAAAACAGAAAAAGAAGATTTCATCGAACTCTGCACCCCTGGGGTAATTAAGCAAGAGAAACTGGGCACAGTTTACTGTCAGGCAAGCTTTCCTGGAGCAAATATAATTGGTAATAAAATGTCTGCCATTTCTGTTCATGGTGTGAGTACCTCTGGAGGACAGATGTACCACTATGACATGAATACAGCATCCCTTTCTCAACAGCAGGATCAGAAGCCTATTTTTAATGTCATTCCACCAATTCCCGTTGGTTCCGAAAATTGGAATAGGTGCCAAGGATCTGGAGATGACAACTTGACTTCTCTGGGGACTCTGAACTTCCCTGGTCGAACAGTTTTTTCTAATGGCTATTCAAGCCCCAGCATGAGACCAGATGTAAGCCCTCCTCCATCCAGCTCCTCAACAGCAACAACAGGACCACCTCCCAAACTCTGCCTGGTGTGCTCTGATGAAGCTTCAGGATGTTATTATGGAGTCTTAACTTGTGGAAGCTGTAAAGTTTTCTTCAAAAGAGCAGTGGAAGGACAGCACAATTACCTATGTGCTGGAAGGAATGATTGCATCATCGATAAAATTCGAAGAAAAAACTGCCCAGCATGCCGCTATCGAAAATGTCTTCAGGCTGGAATGAACCTGGAAGCTCG
modifications: CDS (47)..(1261)
B3: 237 (nucleic acid, listed as Homo sapiens)
chain: TGCGCGTGCGCAGGGATAAGAGAGCGGTCTGGACAGCGCGTGGCCGGCGCCGCTGTGGGGACAGCATGAGCGGCGGTTGGATGGCGCAGGTTGGAGCGTGGCGAACAGGGGCTCTGGGCCTGGCGCTGCTGCTGCTGCTCGGCCTCGGACTAGGCCTGGAGGCCGCCGCGAGCCCGCTTTCCACCCCGACCTCTGCCCAGGCCGCAGGCCCCAGCTCAGGCTCGTGCCCACCCACCAAGTTCCAGTGCCGCACCAGTGGCTTATGCGTGCCCCTCACCTGGCGCTGCGACAGGGACTTGGACTGCAGCGATGGCAGCGATGAGGAGGAGTGCAGGATTGAGCCATGTACCCAGAAAGGGCAATGCCCACCGCCCCCTGGCCTCCCCTGCCCCTGCACCGGCGTCAGTGACTGCTCTGGGGGAACTGACAAGAAACTGCGCAACTGCAGCCGCCTGGCCTGCCTAGCAGGCGAGCTCCGTTGCACGCTGAGCGATGACTGCATTCCACTCACGTGGCGCTGCGACGGCCACCCAGACTGTCCCGACTCCAGCGACGAGCTCGGCTGTGGAACCAATGAGATCCTCCCGGAAGGGGATGCCACAACCATGGGGCCCCCTGTGACCCTGGAGAGTGTCACCTCTCTCAGGAATGCCACAACCATGGGGCCCCCTGTGACCCTGGAGAGTGTCCCCTCTGTCGGGAATGCCACATCCTCCTCTGCCGGAGACCAGTCTGGAAGCCCAACTGCCTATGGGGTTATTGCAGCTGCTGCGGTGCTCAGTGCAAGCCTGGTCACCGCCACCCTCCTCCTTTTGTCCTGGCTCCGAGCCCAGGAGCGCCTCCGCCCACTGGGGTTACTGGTGGCCATGAAGGAGTCCCTGCTGCTGTCAGAACAGAAGACCTCGCTGCCCTGAGGACAAGCACTTGCCACCACCGTCACTCAGCCCTGGGCGTAGCCGGACAGGAGGAGAGCAGTGATGCGGATGGGTACCCGGGCACACCAGCCCTCAGAGACCTGAGCTCTTCTGGCCACGTGGAACCTCGAACCCGAGCTCCTGCAGAAGTGGCCCTGGAGATTGAGGGTCCCTGGACACTCCCTATGGAGATCCGGGGAGCTAGGATGGGGAACCTGCCACAGCCAGAACTGAGGGGCTGGCCCCAGGCAGCTCCCAGGGGGTAGAACGGCCCTGTGCTTAAGACACTCCTGCTGCCCCGTCTGAGGGTGGCGATTAAAGTTGCT
modifications: CDS (66)..(911)
B4: 26 (nucleic acid, listed as Homo sapiens)
chain: AGCCAAGGAGCAATAACTGAACGTTTAAGAAGCTTCAGTATGCATGATTTAACAACTATCCAAGGTGATGAGCCTGTGGGACAAAGACCATACCAACCTCTACCAGAAGCAAAAAAGAAAAGTAAACCAGCCCCCAGTGAATCAGCAGGTTATGGAATTCCACTGAAAGACGGAGATGAGAAAACAGATGAAGAAGCAGAGGGGCCATATTCAGATAATGAGATGTTAACACACAAAGGGCTTCGAAGATCGCAAAGCATGAAATCTGTGAAAACCACCAAAGGCCGCAAAGAGGTGCGGTACGGGTCACTAAAATACAAAGTGAAGAAACGACCACAAGTGTATTTTTAGTCATCTACACGTCAAATATCCCAAGACAGATTATGCTAAATACATCGACTTCATCTTCTAACATGATATATTCAGGATTTACACATTAAAATGATTATTT
modifications: CDS (40)..(348)

Tested on: STAT6
Assay: Screening of full-length cDNA clones for promotion of STAT6 activation (luciferase reporter N4×8-luc)
Assay type: cell-based
Details: NIH3T3 cells cotransfected with N4×8-luc reporter and cDNA plasmid; 48 h culture, then mouse IL-4 0.5 ng/ml for 6 h
Procedure: As a preferable method, NIH3T3 cells are inoculated on 10% FBS (Fetal Bovine Serum)-containing IMDM medium in a 96-well cell culture plate to a final cell density of 1×10^4 cells/well, and cultured for 24 hours at 37° C., in the presence of 5% CO2. Then, the luciferase reporter plasmid N4×8-luc which has a STAT6 response sequence, and the expression vector are cotransfected into the cells in a well using FuGENE 6 (Roche). After 48 hours of culture at 37° C., in the presence of 5% CO2 mouse IL-4 (Immuno Biological Laboratories Co., Ltd.) is added to a final concentration of 0.5 ng/ml. After culturing for further 6 hours, promoting activity for STAT6 activation is then measured by measuring luciferase activity using a long term luciferase assay system, Picagene LT2.0 (Toyo Ink Mfg). For example, luciferase activity can be measured using PerkinElmer's Wallac ARVOTMST 1420 MULTILABEL COUNTER. The method for gene introduction by FuGENE6, and measurement of luciferase activity by Picagene LT2.0 can be performed respectively according to the attached protocols. In a method of gene introduction with a 96-well plate using FuGENE6, the amount of FuGENE6 per 1 well is suitably 0.3 to 0.5 μl, preferably 0.3 μl; the amount of N4×8-luc reporter plasmid is suitably 50 to 100 ng, preferably 100 ng; and the amount of expression vector is suitably 50 to 100 ng, preferably 100 ng. An ability (action) to promote STAT6 activation refers to an ability to increase the reporter activity (luciferase activity) relative to the control experiment (for cells into which the reporter gene and a null vector were introduced). Increase in reporter activity is preferably by a factor of 1.5 or more, more preferably by a factor of 3 or more, and still more preferably by a factor of 6 or more.
NIH3T3 cells (purchased from Dainippon Pharmaceutical) were grown to 1×10^4 cells/well in a 96 well plate for cell culture for 24 hours at 37° C. (in the presence of 5% CO2) using 10% FBS containing IMDM medium. Then, 100 ng of luciferase reporter plasmid N4×8-luc having a STAT6 response sequence and 2 μl of the full-length cDNA prepared in above Example 1.(3) were cotransfected into the cells in a well using FuGENE 6 (purchased from Roche) according to the manufacturer's protocol. The luciferase reporter plasmid N4×8-luc having the STAT6 response sequence was constructed as follows. […] 157, 2058-2065 (1996)], oligonucleotides having the following sequences were synthesized:
The synthesized oligonucleotides were dissolved in sterile water to be 1μg/μl, respectively, mixed in 10 μl lots, and adjusted the volume to 32 μl with sterile water. The solution was heated for 5 min at 90° C., and gradually cooled down to room temperature to prepare a double-stranded oligonucleotide solution. The solution was reacted with T4 polynucleotide kinase (Takara Shuzo) according to the attached manual, then the reaction product was purified in a usual manner. Separately, SV40 promoter region of pGL3-Promoter vector (Promega) was replaced by the HSV thymidine kinase promoter sequence (from −50 to +10) with Hind III site and BglII site to construct a vector tk-luc. The aforesaid double-stranded oligonucleotide fragments were inserted into the XhoI site of this tk-luc vector using T4 DNA ligase (GIBCO/BRL). The obtained clones were sequenced according to a usual method, and clones in which plural oligonucleotide fragments were inserted were selected. […] The four-interlinked DNA fragments were excised from the N4×4-luc with a XhoI and a BglII site and purified to be inserted into a BamHI and a XhoI site of pBluescript II KS+ (Stratagene). The four-interlinked DNA fragments were excised from this plasmid with KpnI and SpeI and inserted into a KpnI and a NheI site of N4×4-luc plasmid to finally obtain N4×8-luc.

| Molecule | Activity = (luciferase activity of the gene of each SEQ ID NO:)/(luciferase activity of pME18S-FL3) |
| --- | --- |
| B1 | 12.7 |
| B2 | 1521.5 |
| B3 | 105.1 |
| B4 | 33.5 |
